From patent US4797472A, “New peptide derivatives” (KabiVitrum AB, priority 1986, dated 1989)
Square brackets hold non-standard residues; d marks the D form. Peptide text beside a SMILES is read from it. * marks the point of attachment. pNA = O=[N+]([O-])c1ccc(N*)cc1; Cbz = O=C(OCc1ccccc1)*; Ms = CS(=O)(=O)*

Assays:
[1] = target: T1, Thrombin bovine (Bos taurus, UniProt P00735); test: Determination of thrombin sensitivity; assay type: biochemical; conditions: Thrombin bovine E0=1.3 nmol/l; substrate 0.1-0.4 mmol/l; trisbuffer pH 8.3, I=0.25, 37° C.
T1 construct: Thrombin bovine (KabiVitrum) with a constant concentration E0 =1.3 nmol/l; purchased KabiVitrum

[2] = target: T2, FXa human (Homo sapiens, UniProt P00742); test: Determination of kinetic constants for FXa human (plasma activated with RVV+CaCl2); assay type: biochemical; conditions: substrate 0.1-0.7 mmol/l, trisbuffer pH 7.0, I=0.25, polybrene, 37° C.
T2 construct: from tissue; host or cells: human plasma
T2 sequence (P00742 235-488 limits assumed): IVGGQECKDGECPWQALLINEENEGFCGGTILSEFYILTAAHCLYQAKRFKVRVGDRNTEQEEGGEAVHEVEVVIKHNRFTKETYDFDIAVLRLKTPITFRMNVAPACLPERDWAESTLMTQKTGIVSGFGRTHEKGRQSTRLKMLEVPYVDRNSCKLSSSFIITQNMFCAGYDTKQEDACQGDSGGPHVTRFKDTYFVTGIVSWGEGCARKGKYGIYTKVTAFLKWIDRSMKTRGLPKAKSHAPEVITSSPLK
T2 sequence (P00742 41-179 partner limits assumed): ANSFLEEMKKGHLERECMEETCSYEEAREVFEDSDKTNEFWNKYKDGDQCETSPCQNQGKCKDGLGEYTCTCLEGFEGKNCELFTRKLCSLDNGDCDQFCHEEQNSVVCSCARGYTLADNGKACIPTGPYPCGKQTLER
Description: The kinetic data for the substrates are determined by measuring the initial velocity of hydrolysis (Vi) at different substrate concentrations (Si) and at constant enzyme concentrations (Eo). The binding constant (Km) and the maximum velocity (Vmax) are obtained in known manner from Lineweaver-Burk-plot, then the Kcat is calculated (Hemker H. C. loc. cit.)
The substrates in concentrations between 0.1-0.7 mmol/l (Si) are mixed with FXa human plasma and treated according to the method as described by Aurell; L., et al. (Perspectives in Hemostatis, Ed. Fareed J. et al, New York, Pergamon Press 1981, p. 382-388).
10 μl test plasma, control or standard and 200 μl trisbuffer solution (0.05 mol/l tris, pH 7.0, I=0.25 (NaCl)), polybrene (0.1 g/l) are mixed and incubated at 37° C. for 2-4 minutes. 200 μl substrate (37° C.) in concentrations between 0.1-0.7 mmol/l dissolved in trisbuffer solution prepared according to the above are added. The mixture is well stirred and within 30 seconds 200 μl RVV+CaCl2 (20°-25° C.) are added and the mixture is stirred. The absorbance change is measured at once in a spectrophotometer at 405 nm and 37° C.

[3] = substrate: COc1ccc(S(=O)(=O)N[C@H](CCCNC(=N)N)C(=O)NCC(=O)N[C@@H](CCCNC(=N)N)C(=O)Nc2ccc([N+](=O)[O-])cc2)cc1; test: purified protein, by the assay type; conditions: other: FXa bovine E0=4 nmol/l (pNA-substrate) or 2 nmol/l (AMC-substrate), substrate 0.01-0.4 mmol/l, trisbuffer 0.05 mol/l, pH 8.3, I=0.25, 37° C.
Description: (§1) Enzymes and substrates are mixed in a buffer solution at -37° C. The absorbance change per minute is measured at 405 nm in a spectrophotometer (pNA-substrate) or in a spectrofluorometer at excitation wavelength 380 nm and emission wavelength 440 nm (AMC-substrate).
(§2) FXa bovine (KabiVitrum) with a constant enzyme concentration
E0 =4 nmol/l (pNA-substrate)
E0 =2 nmol/l (AMC-substrate)
(§3) and the substrate in concentrations between 0.01-0.4 mmol/l (Si) are mixed in a trisbuffer solution 0.05 mol/l, pH=8.3, I=0.25 (NaCl) at 37° C. Absorbance change per minute is measured at 405 nm in a spectrophotometer for pNA-substrate and in a spectrofluorometer at emission wavelength 440 nm for AMC-substrate, respectively.

[4] = substrate: N=C(N)NCCC[C@H](NC(=O)CNC(=O)[C@@H](CCCNC(=N)N)NC(=O)OCc1ccccc1)C(=O)Nc1ccc([N+](=O)[O-])cc1; test: purified protein, by the assay type; conditions: other: FXa bovine E0=4 nmol/l (pNA-substrate) or 2 nmol/l (AMC-substrate), substrate 0.01-0.4 mmol/l, trisbuffer 0.05 mol/l, pH 8.3, I=0.25, 37° C.
Description: as §1, §2
E0 =4 nmol/l (pNA-substrate)
E0 =2 nmol/l (AMC-substrate)
as §3

[5] = substrate: N=C(N)NCCC[C@H](NC(=O)CNC(=O)[C@@H](CCCNC(=N)N)NS(=O)(=O)c1ccc2ccccc2c1)C(=O)Nc1ccc([N+](=O)[O-])cc1; test: purified protein, by the assay type; conditions: other: FXa bovine E0=4 nmol/l (pNA-substrate) or 2 nmol/l (AMC-substrate), substrate 0.01-0.4 mmol/l, trisbuffer 0.05 mol/l, pH 8.3, I=0.25, 37° C.
Description: as §1, §2
E0 =4 nmol/l (pNA-substrate)
E0 =2 nmol/l (AMC-substrate)
as §3

[6] = substrate: CCOC(=O)N[C@H](CCCNC(=N)N)C(=O)NCC(=O)N[C@@H](CCCNC(=N)N)C(=O)Nc1ccc([N+](=O)[O-])cc1; test: purified protein, by the assay type; conditions: other: FXa bovine E0=4 nmol/l (pNA-substrate) or 2 nmol/l (AMC-substrate), substrate 0.01-0.4 mmol/l, trisbuffer 0.05 mol/l, pH 8.3, I=0.25, 37° C.
Description: as §1, §2
E0 =4 nmol/l (pNA-substrate)
E0 =2 nmol/l (AMC-substrate)
as §3

[7] = substrate: COc1ccc(COC(=O)N[C@H](CCCNC(=N)N)C(=O)NCC(=O)N[C@@H](CCCNC(=N)N)C(=O)Nc2ccc([N+](=O)[O-])cc2)cc1; test: purified protein, by the assay type; conditions: other: FXa bovine E0=4 nmol/l (pNA-substrate) or 2 nmol/l (AMC-substrate), substrate 0.01-0.4 mmol/l, trisbuffer 0.05 mol/l, pH 8.3, I=0.25, 37° C.
Description: as §1, §2
E0 =4 nmol/l (pNA-substrate)
E0 =2 nmol/l (AMC-substrate)
as §3

[8] = substrate: N=C(N)NCCC[C@H](NC(=O)CNC(=O)[C@@H](CCCNC(=N)N)NS(=O)(=O)c1ccccc1)C(=O)Nc1ccc([N+](=O)[O-])cc1; test: purified protein, by the assay type; conditions: other: FXa bovine E0=4 nmol/l (pNA-substrate) or 2 nmol/l (AMC-substrate), substrate 0.01-0.4 mmol/l, trisbuffer 0.05 mol/l, pH 8.3, I=0.25, 37° C.
Description: as §1, §2
E0 =4 nmol/l (pNA-substrate)
E0 =2 nmol/l (AMC-substrate)
as §3

[9] = substrate: CS(=O)(=O)N[C@H](CCCNC(=N)N)C(=O)NCC(=O)N[C@@H](CCCNC(=N)N)C(=O)Nc1ccc([N+](=O)[O-])cc1; test: purified protein, by the assay type; conditions: other: FXa bovine E0=4 nmol/l (pNA-substrate) or 2 nmol/l (AMC-substrate), substrate 0.01-0.4 mmol/l, trisbuffer 0.05 mol/l, pH 8.3, I=0.25, 37° C.
Description: as §1, §2
E0 =4 nmol/l (pNA-substrate)
E0 =2 nmol/l (AMC-substrate)
as §3

[10] = substrate: N=C(N)NCCC[C@H](NC(=O)CNC(=O)[C@@H](CCCNC(=N)N)NS(=O)(=O)Cc1ccccc1)C(=O)Nc1ccc([N+](=O)[O-])cc1; test: purified protein, by the assay type; conditions: other: FXa bovine E0=4 nmol/l (pNA-substrate) or 2 nmol/l (AMC-substrate), substrate 0.01-0.4 mmol/l, trisbuffer 0.05 mol/l, pH 8.3, I=0.25, 37° C.
Description: as §1, §2
E0 =4 nmol/l (pNA-substrate)
E0 =2 nmol/l (AMC-substrate)
as §3

[11] = substrate: Cc1ccc(S(=O)(=O)N[C@H](CCCNC(=N)N)C(=O)NCC(=O)N[C@@H](CCCNC(=N)N)C(=O)Nc2ccc([N+](=O)[O-])cc2)cc1; test: purified protein, by the assay type; conditions: other: FXa bovine E0=4 nmol/l (pNA-substrate) or 2 nmol/l (AMC-substrate), substrate 0.01-0.4 mmol/l, trisbuffer 0.05 mol/l, pH 8.3, I=0.25, 37° C.
Description: as §1, §2
E0 =4 nmol/l (pNA-substrate)
E0 =2 nmol/l (AMC-substrate)
as §3

[12] = substrate: CC(C)C[C@@H](NS(C)(=O)=O)C(=O)NCC(=O)N[C@@H](CCCNC(=N)N)C(=O)Nc1ccc([N+](=O)[O-])cc1; test: purified protein, by the assay type; conditions: other: FXa bovine E0=4 nmol/l (pNA-substrate) or 2 nmol/l (AMC-substrate), substrate 0.01-0.4 mmol/l, trisbuffer 0.05 mol/l, pH 8.3, I=0.25, 37° C.
Description: as §1, §2
E0 =4 nmol/l (pNA-substrate)
E0 =2 nmol/l (AMC-substrate)
as §3

[13] = substrate: CC(C)(C)OC(=O)N[C@H](CCCNC(=N)N)C(=O)NCC(=O)N[C@@H](CCCNC(=N)N)C(=O)Nc1ccc([N+](=O)[O-])cc1; test: purified protein, by the assay type; conditions: other: FXa bovine E0=4 nmol/l (pNA-substrate) or 2 nmol/l (AMC-substrate), substrate 0.01-0.4 mmol/l, trisbuffer 0.05 mol/l, pH 8.3, I=0.25, 37° C.
Description: as §1, §2
E0 =4 nmol/l (pNA-substrate)
E0 =2 nmol/l (AMC-substrate)
as §3

[14] = substrate: CCS(=O)(=O)N[C@H](CCCNC(=N)N)C(=O)NCC(=O)N[C@@H](CCCNC(=N)N)C(=O)Nc1ccc([N+](=O)[O-])cc1; test: purified protein, by the assay type; conditions: other: FXa bovine E0=4 nmol/l (pNA-substrate) or 2 nmol/l (AMC-substrate), substrate 0.01-0.4 mmol/l, trisbuffer 0.05 mol/l, pH 8.3, I=0.25, 37° C.
Description: as §1, §2
E0 =4 nmol/l (pNA-substrate)
E0 =2 nmol/l (AMC-substrate)
as §3

[15] = substrate: CN(CC(=O)N[C@@H](CCCNC(=N)N)C(=O)Nc1ccc([N+](=O)[O-])cc1)C(=O)[C@@H](CCCNC(=N)N)NC(=O)OCc1ccccc1; test: purified protein, by the assay type; conditions: other: FXa bovine E0=4 nmol/l (pNA-substrate) or 2 nmol/l (AMC-substrate), substrate 0.01-0.4 mmol/l, trisbuffer 0.05 mol/l, pH 8.3, I=0.25, 37° C.
Description: as §1, §2
E0 =4 nmol/l (pNA-substrate)
E0 =2 nmol/l (AMC-substrate)
as §3

[16] = substrate: N=C(N)NCCC[C@H](NC(=O)CNC(=O)[C@@H](CCCNC(=N)N)NS(=O)(=O)c1ccc(Cl)cc1)C(=O)Nc1ccc([N+](=O)[O-])cc1; test: purified protein, by the assay type; conditions: other: FXa bovine E0=4 nmol/l (pNA-substrate) or 2 nmol/l (AMC-substrate), substrate 0.01-0.4 mmol/l, trisbuffer 0.05 mol/l, pH 8.3, I=0.25, 37° C.
Description: as §1, §2
E0 =4 nmol/l (pNA-substrate)
E0 =2 nmol/l (AMC-substrate)
as §3

[17] = substrate: Cc1cc(=O)oc2cc(NC(=O)[C@H](CCCNC(=N)N)NC(=O)CNC(=O)[C@@H](CCCNC(=N)N)NC(=O)OCc3ccccc3)ccc12; test: purified protein, by the assay type; conditions: other: FXa bovine E0=4 nmol/l (pNA-substrate) or 2 nmol/l (AMC-substrate), substrate 0.01-0.4 mmol/l, trisbuffer 0.05 mol/l, pH 8.3, I=0.25, 37° C.
Description: as §1, §2
E0 =4 nmol/l (pNA-substrate)
E0 =2 nmol/l (AMC-substrate)
as §3

[18] = substrate: N=C(N)NCCC[C@H](NC(=O)CNC(=O)[C@@H](CCCNC(=N)N)NC(=O)OCc1ccc([N+](=O)[O-])cc1)C(=O)Nc1ccc([N+](=O)[O-])cc1; test: purified protein, by the assay type; conditions: other: FXa bovine E0=4 nmol/l (pNA-substrate) or 2 nmol/l (AMC-substrate), substrate 0.01-0.4 mmol/l, trisbuffer 0.05 mol/l, pH 8.3, I=0.25, 37° C.
Description: as §1, §2
E0 =4 nmol/l (pNA-substrate)
E0 =2 nmol/l (AMC-substrate)
as §3

[19] = substrate: N=C(N)NCCC[C@H](NC(=O)CNC(=O)[C@@H](CCCNC(=N)N)NS(=O)(=O)c1ccc([N+](=O)[O-])cc1)C(=O)Nc1ccc([N+](=O)[O-])cc1; test: purified protein, by the assay type; conditions: other: FXa bovine E0=4 nmol/l (pNA-substrate) or 2 nmol/l (AMC-substrate), substrate 0.01-0.4 mmol/l, trisbuffer 0.05 mol/l, pH 8.3, I=0.25, 37° C.
Description: as §1, §2
E0 =4 nmol/l (pNA-substrate)
E0 =2 nmol/l (AMC-substrate)
as §3

Work on `N=C(N)NCCC[C@H](NC(=O)CNC(=O)[C@@H](CCCNC(=N)N)NC(=O)OCc1ccccc1)C(=O)Nc1ccc([N+](=O)[O-])cc1` [Example 1, N^α --Z--D--Arg--Gly--Arg--pNA.2HCl] (Cbz-[dR]-Gly-Arg-pNA) yielded a Km [1] of 130 µM and a Km [2] of 380 µM.

Molecule `CCS(=O)(=O)N[C@H](CCCNC(=N)N)C(=O)NCC(=O)N[C@@H](CCCNC(=N)N)C(=O)Nc1ccc([N+](=O)[O-])cc1` [Example 4, N^α --Ets--D--Arg--Gly--Arg--pNA.2HCl] has a Km [1] of 410 µM and a Km [2] of 340 µM.

With `CC(C)C[C@@H](NS(C)(=O)=O)C(=O)NCC(=O)N[C@@H](CCCNC(=N)N)C(=O)Nc1ccc([N+](=O)[O-])cc1` [CBS 31.39, CH3 SO2 --D--Leu--Gly--Arg--pNA.AcOH] (Ms-[dL]-Gly-Arg-pNA) the Km [1] was 230 µM and the Km [2] was 1060 µM.

B1: FXa bovine (Bos taurus) (protein)
chain: IVGGRDCAEGECPWQALLVNEENEGFCGGTILNEFYVLTAAHCLHQAKRFTVRVGDRNTEQEEGNEMAHEVEMTVKHSRFVKETYDFDIAVLRLKTPIRFRRNVAPACLPEKDWAEATLMTQKTGIVSGFGRTHEKGRLSSTLKMLEVPYVDRSTCKLSSSFTITPNMFCAGYDTQPEDACQGDSGGPHVTRFKDTYFVTGIVSWGEGCARKGKFGVYTKVSNFLKWIDKIMKARAGAAGSRGHSEAPATWTVPPPLPL
B1 was tested, and the Km [3] was 200 µM, the kcat [3] was 210 sek^-1 and the kcat/Km [3] was 1.05 l/μmol · sek. The Km [4] was 110 µM, the Km [5] was 120 µM and the kcat [5] was 140 sek^-1. The kcat/Km [5] was 1.14 l/μmol · sek, the Km [6] was 160 µM and the kcat [6] was 225 sek^-1. For the same molecule, the kcat/Km [6] was 1.41 l/μmol · sek, the Km [7] was 150 µM and the Km [8] was 260 µM. For the same molecule, the kcat [8] was 280 sek^-1, the kcat/Km [8] was 1.07 l/μmol · sek and the Km [9] was 170 µM. For the same molecule, the kcat [9] was 200 sek^-1, the kcat/Km [9] was 1.17 l/μmol · sek and the Km [10] was 40 µM. The Km [11] was 220 µM, the kcat [11] was 230 sek^-1 and the kcat/Km [11] was 1.04 l/μmol · sek. The Km [12] was 290 µM, the Km [13] was 220 µM and the kcat [13] was 180 sek^-1. The kcat/Km [13] was 0.82 l/μmol · sek, the Km [14] was 190 µM and the Km [15] was 160 µM. It also gave a kcat [15] of 220 sek^-1, a kcat/Km [15] of 1.37 l/μmol · sek and a Km [16] of 270 µM. The kcat [16] was 260 sek^-1, the kcat/Km [16] was 0.96 l/μmol · sek and the Km [17] was 190 µM. The kcat [17] was 170 sek^-1, the kcat/Km [17] was 0.89 l/μmol · sek and the Km [18] was 210 µM. For the same molecule, the kcat [18] was 350 sek^-1, the kcat/Km [18] was 1.66 l/μmol · sek and the Km [19] was 450 µM. It also gave a kcat [19] of 245 sek^-1 and a kcat/Km [19] of 0.55 l/μmol · sek.
